Laboratory results: publication PMC5671938, “Multimerin-2 is a ligand for group 14 family C-type lectins CLEC14A, CD93 and CD248 spanning the endothelial pericyte interface” (Oncogene, 2017)

Target: T1, recombinant CLEC14A extracellular domain with an Fc tag (CLEC14A-ECD-Fc) (human, UniProt Q86T13 22-397)
T1 construct: CLEC14A, human, extracellular domain; Human IgG Fc alone served as the control for the Fc tag; also called hCLEC14A-ECD-Fc; CLEC14A-Fc
T1 sequence (looked up): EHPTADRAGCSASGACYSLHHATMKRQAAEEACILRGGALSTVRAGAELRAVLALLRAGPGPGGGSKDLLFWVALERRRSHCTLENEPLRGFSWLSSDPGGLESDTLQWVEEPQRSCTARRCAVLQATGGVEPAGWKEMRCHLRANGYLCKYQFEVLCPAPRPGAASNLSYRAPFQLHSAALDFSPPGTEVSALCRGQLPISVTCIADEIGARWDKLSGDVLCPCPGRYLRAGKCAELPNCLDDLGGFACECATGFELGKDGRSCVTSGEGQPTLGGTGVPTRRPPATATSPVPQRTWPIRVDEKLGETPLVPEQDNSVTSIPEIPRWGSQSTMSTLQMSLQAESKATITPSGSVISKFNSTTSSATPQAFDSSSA
Assay: flow cytometry on cells; blocking: hCLEC14A-ECD-Fc incubated with 2 x molar excess of MMRN2^495-674 or MMRN2^495-603 for 1 h at 4 °C, then used to stain the HUVEC surface; anti-hFc-FITC
Conditions: both partners purified

B1: MMRN2^495-674 expressed and purified from E. coli (blocking experiments) (domain or fragment, human, UniProt Q9H8L6 495-674, looked up)
chain: QKLYLDLDVIREGQRDATRALEETQVSLDERRQLDGSSLQALQNAVDAVSLAVDAHKAEGERARAATSRLRSQVQALDDEVGALKAAAAEARHEVRQLHSAFAALLEDALRHEAVLAALFGEEVLEEMSEQTPGPLPLSYEQIRVALQDAASGLQEQALGWDELAARVTALEQASEPPRP
notes: codon optimized synthetic DNA in pET23a between NdeI and NotI; The fragment was made 'with His tag or avitag'; also called MMRN2 peptide; source: E. coli BL21-DE3 pLysS, purified (Nickel-NTA, size exclusion chromatography), endotoxin removed
- binding result: binds
